Reference: patent US20250051788A1

Key:
Assay in all cases: anti-FLAG IP-MS vs mock IP
[1] = target: Phosphoserine aminotransferase (PSAT) (AT4G35630) (Arabidopsis thaliana) (UniProt Q96255)
[2] = target: Thioredoxin superfamily protein (ATHM2) (AT4G03520) (Arabidopsis thaliana) (UniProt Q9SEU8)
[3] = target: thioglucoside glucohydrolase 1 (TGG1) (AT5G26000) (Arabidopsis thaliana) (UniProt P37702)
[4] = target: Nodulin-related protein 1 (NRP1) (AT2G03440) (Arabidopsis thaliana) (UniProt Q9ZQ80)
Chain of UniProt Q9ZQ80 (Q9ZQ80 whole entry): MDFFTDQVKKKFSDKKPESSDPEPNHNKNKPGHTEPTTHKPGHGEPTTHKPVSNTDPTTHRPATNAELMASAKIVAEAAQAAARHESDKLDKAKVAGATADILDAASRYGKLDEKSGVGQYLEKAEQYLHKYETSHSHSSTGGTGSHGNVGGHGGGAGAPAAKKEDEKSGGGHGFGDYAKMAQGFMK

Chain of UniProt Q9SEU8 (Q9SEU8 73-186): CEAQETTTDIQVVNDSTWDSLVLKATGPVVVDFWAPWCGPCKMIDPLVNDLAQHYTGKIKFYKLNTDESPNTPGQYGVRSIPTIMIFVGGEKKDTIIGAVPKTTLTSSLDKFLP
Chain of UniProt P37702 (P37702 20-541 limits assumed): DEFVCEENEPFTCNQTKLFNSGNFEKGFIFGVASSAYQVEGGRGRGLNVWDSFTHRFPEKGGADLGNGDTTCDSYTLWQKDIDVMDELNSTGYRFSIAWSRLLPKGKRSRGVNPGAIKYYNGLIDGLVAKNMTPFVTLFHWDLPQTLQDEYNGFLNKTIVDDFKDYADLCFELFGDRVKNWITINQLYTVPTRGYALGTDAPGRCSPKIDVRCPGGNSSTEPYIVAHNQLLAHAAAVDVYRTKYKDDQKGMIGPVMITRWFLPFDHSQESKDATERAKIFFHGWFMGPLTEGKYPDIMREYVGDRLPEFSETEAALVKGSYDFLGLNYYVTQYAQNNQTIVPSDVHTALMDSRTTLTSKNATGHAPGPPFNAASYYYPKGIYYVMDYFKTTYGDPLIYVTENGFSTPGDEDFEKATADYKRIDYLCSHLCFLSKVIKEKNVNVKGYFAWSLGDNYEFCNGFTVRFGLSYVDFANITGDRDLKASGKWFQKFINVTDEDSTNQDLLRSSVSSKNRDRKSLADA
Chain of UniProt Q96255 (Q96255 52-430): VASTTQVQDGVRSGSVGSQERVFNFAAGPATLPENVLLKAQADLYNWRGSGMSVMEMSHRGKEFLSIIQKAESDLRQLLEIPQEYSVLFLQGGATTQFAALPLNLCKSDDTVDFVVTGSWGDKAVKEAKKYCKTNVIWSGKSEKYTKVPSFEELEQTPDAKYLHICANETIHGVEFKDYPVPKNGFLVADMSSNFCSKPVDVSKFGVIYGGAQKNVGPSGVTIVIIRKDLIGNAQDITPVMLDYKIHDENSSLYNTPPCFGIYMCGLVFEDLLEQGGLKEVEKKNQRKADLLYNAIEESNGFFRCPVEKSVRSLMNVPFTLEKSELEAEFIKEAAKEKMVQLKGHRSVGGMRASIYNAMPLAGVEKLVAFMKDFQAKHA

Substance “FLAG-BD (FLAG-tagged minimal Arabidopsis BRN1 protein that contains only the first two RRM domains) (from UniProt Q8LFS6 2-199)” has a Log2(FC) Replicate 1/ Mock [1] of 3.09 log2, a Log2(FC) Replicate 2/ Mock [1] of 3.17 log2 and a Log2(FC) Replicate 3/ Mock [1] of 1.81 log2. For the same substance, the Log2(FC) Replicate 4/ Mock [1] was 1.81 log2, the Log2(FC) Replicate 1/ Mock [2] was 0.585 log2 and the Log2(FC) Replicate 2/ Mock [2] was 2.17 log2. For the same substance, the Log2(FC) Replicate 3/ Mock [2] was 3.39 log2, the Log2(FC) Replicate 4/ Mock [2] was 3.09 log2 and the Log2(FC) Replicate 1/ Mock [3] was -0.214 log2. For the same substance, the Log2(FC) Replicate 2/ Mock [3] was 0.697 log2, the Log2(FC) Replicate 3/ Mock [3] was 1.95 log2 and the Log2(FC) Replicate 4/ Mock [3] was 1.84 log2. For the same substance, the Log2(FC) Replicate 1/ Mock [4] was 2 log2, the Log2(FC) Replicate 2/ Mock [4] was 2.5 log2 and the Log2(FC) Replicate 3/ Mock [4] was 1.74 log2. The Log2(FC) Replicate 4/ Mock [4] was 1.87 log2.
